Measured values: US20230295308A1, “ANTAGONISTIC BIPARATOPIC ANTIBODIES THAT SPECIFICALLY BIND FIBROBLAST GROWTH FACTOR RECEPTOR 2 AND METHODS OF USING SAME” (The Broad Institute, Inc., priority 2020, published 2023)

Key:
[1] = tested on: cells stably overexpressing FGFR2 (FGFR2IIIb); assay: growth of cells stably overexpressing FGFR2 (FGFR2IIIb) (FIG. 16F left); assay type: cell-based
Excerpt: FIG. 16A-16F provide schematic illustrations, blots and graphs related to the development of a NANOBIT® assay to measure FGFR2 dimerization. Such an assay is used to screen biparatopic screening for their ability to disrupt FGFR2 dimerization. […] The protein interactions bring the subunits into close proximity to form a functional enzyme that generates a bright, luminescent signal. (FIG. 16B). […] FIG. 16E presents a graph of the results of the NANOBIT® assay using NANOBIT® constructs with or without FGF10 ligand. […] As shown in the graph on the left side of FIG. 16F, certain of the antibodies A-F inhibited the growth of BaF3 cells stably overexpressing FGFR2 (FGFR2IIIb). Antibody D was used in the NANOBIT® assay (graph on the right of FIG. 16F). In the rightmost graph in FIG. 16F, the fold luminescence resulting from FGFR2 WT (wild type) in the assay is represented by the left bar in each set of three bars; the fold luminescence resulting from FGFR2+FGF10 ligand in the assay is represented by the middle bar in each set of three bars; and the fold luminescence resulting from +/−FGF10 ligand difference in the assay is represented by the right bar in each set of three bars shown in FIG. 16F.
Different expression constructs (e.g., up to eight) were made encoding LgBiT and SmBiT fused to the N and C termini of protein:protein pairs. […]

[2] = molecular target: FGFR2b alpha IIIb antigen (UniProt P21802); assay: SPR (Biacore), antibody immobilized, FGFR2b alpha IIIb in flow
[3] = tested on: cells transformed with patient-derived FGFR2 having ECD activating deletion mutations; assay: patient-derived FGFR2 ECD mutation driven cell growth (FIG. 4F); assay type: cell-based; conditions: fold change from nonspecific IgG control
Excerpt: FIGS. 4A-4F present schematic diagrams, blots, images, tables and graphs showing that the FGFR2 extracellular domain is important for FGFR2 fusion driven cell growth and transformation and that patient-derived FGFR2 extracellular domain mutations increased transformation capacity. As also shown, some parental antibodies were effective in inhibiting ECD mutation driven cell growth. FIG. 4A is a graph showing that FGFR2-BICC1, FGFR2-AHCYL1, and FGFR2-PHGDH fusions grow faster compared to controls and respond to FGF ligands. The FGFR2 extracellular domain (ECD) contributes to the growth of transformed NIH3T3 cells expressing FGFR2 fusions. […] In addition, the ability of the antibodies described herein to inhibit the growth of the cells that overexpressed the ECD mutant FGFR2 fusions was assessed. […]
Expression of FGFR2-BICC1, FGFR2-AHCYL1, and FGFR2-PHGDH in NIH3T3 cells induced increased proliferation. […] By way of example, antibodies C, D, and E were effective in blocking the growth of cells having a patient-derived FGFR2 ECD activating mutation, as determined by assessing fold-increase or decrease from a nonspecific Ab (IgG) control (FIG. 4F); therefore, combinations of the binding regions of these antibodies in biparatopic antibodies may likely result in a synergistic blocking effect.

- Binding Stoichiometry [2]: 1.9
B1: 2B 1.3.12 (antibody, V domains shown)
VH: EVQLVESGGGLVQPGGSLRLSCAASGFPFTSTGISWVRQAPGKGLEWVGRTHLGDGSTNYADSVKGRFTISADTSKNTAYLQMNSLRAEDTAVYYCARTYGIYDTYDMYTEYVMDYWGQGTLVTVSS
VL: DIQMTQSPSSLSASVGDRVTITCRASQDVDTSLAWYKQKPGKAPKLLIYSASFLYSGVPSRFSGSGSGTDFTLTISSLQPEDFATYYCQQSTGHPQTFGQGTKVEIK
notes: the duobody scheme implies IgG1 with K409R or F405L; also called Antibody D; GE
- growth inhibition of cells stably overexpressing FGFR2 (FGFR2IIIb) [1]: most pronounced effect
- blocking growth of cells having a patient-derived FGFR2 ECD activating mutation [3]: effective
